Results on two molecules are retold here after publication PMC5999318 (Molecular cell, 2018).

Series [1] concerns the molecule itself. Put plainly: non-reducing SDS-PAGE and anti-FLAG western blot of lysates.
Series [2] concerns the target T1, His-tagged CodA, purified recombinant (E. coli, UniProt P25524 1-427).
T1 sequence (looked up): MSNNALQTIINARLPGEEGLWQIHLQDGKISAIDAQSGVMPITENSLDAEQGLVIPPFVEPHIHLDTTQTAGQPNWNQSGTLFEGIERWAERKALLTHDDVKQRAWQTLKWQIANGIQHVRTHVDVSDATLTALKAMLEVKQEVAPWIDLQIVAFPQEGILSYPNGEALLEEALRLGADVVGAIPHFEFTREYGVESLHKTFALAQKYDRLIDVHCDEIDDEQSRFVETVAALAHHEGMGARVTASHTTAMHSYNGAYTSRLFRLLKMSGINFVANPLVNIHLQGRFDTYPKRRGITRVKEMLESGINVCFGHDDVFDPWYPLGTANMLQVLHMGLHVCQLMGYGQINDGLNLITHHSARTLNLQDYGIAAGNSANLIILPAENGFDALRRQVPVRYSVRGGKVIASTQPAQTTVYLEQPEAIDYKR
The series is described as follows: co-IP.

B1: FLAG-tagged Hcp (hybrid-cluster protein), overexpressed in WT E. coli (enzyme, UniProt P75825 1-550, looked up)
chain: MFCVQCEQTIRTPAGNGCSYAQGMCGKTAETSDLQDLLIAALQGLSAWAVKAREYGIINHDVDSFAPRAFFSTLTNVNFDSPRIVGYAREAIALREALKAQCLAVDANARVDNPMADLQLVSDDLGELQRQAAEFTPNKDKAAIGENILGLRLLCLYGLKGAAAYMEHAHVLGQYDNDIYAQYHKIMAWLGTWPADMNALLECSMEIGQMNFKVMSILDAGETGKYGHPTPTQVNVKATAGKCILISGHDLKDLYNLLEQTEGTGVNVYTHGEMLPAHGYPELRKFKHLVGNYGSGWQNQQVEFARFPGPIVMTSNCIIDPTVGAYDDRIWTRSIVGWPGVRHLDGDDFSAVITQAQQMAGFPYSEIPHLITVGFGRQTLLGAADTLIDLVSREKLRHIFLLGGCDGARGERHYFTDFATSVPDDCLILTLACGKYRFNKLEFGDIEGLPRLVDAGQCNDAYSAIILAVTLAEKLGCGVNDLPLSLVLSWFEQKAIVILLTLLSLGVKNIVTGPTAPGFLTPDLLAVLNEKFGLRSITTVEEDMKQLLSA
For B1, the “stoichiometry N” value in series [1] was 2.

B2: His-tagged GAPDH, purified recombinant (enzyme, E. coli, UniProt P0A9B2 1-331, looked up)
chain: MTIKVGINGFGRIGRIVFRAAQKRSDIEIVAINDLLDADYMAYMLKYDSTHGRFDGTVEVKDGHLIVNGKKIRVTAERDPANLKWDEVGVDVVAEATGLFLTDETARKHITAGAKKVVMTGPSKDNTPMFVKGANFDKYAGQDIVSNASCTTNCLAPLAKVINDNFGIIEGLMTTVHATTATQKTVDGPSHKDWRGGRGASQNIIPSSTGAAKAVGKVLPELNGKLTGMAFRVPTPNVSVVDLTVRLEKAATYEQIKAAVKAAAEGEMKGVLGYTEDDVVSTDFNGEVCTSVFDAKAGIALNDNFVKLVSWYDNETGYSNKVLDLIAHISK
For B2, in series [2], the binding result was “binds”.
